Measurements: paper PMC10958042

B1: ATGL (PNPLA2, patatin-like phospholipase domain-containing protein 2), human, full length / CGI-58 (ABHD5, 1-acylglycerol-3-phosphate O-acyltransferase ABHD5), human (parent)
chain 1: MFPREKTWNISFAGCGFLGVYYVGVASCLREHAPFLVANATHIYGASAGALTATALVTGVCLGEAGAKFIEVSKEARKRFLGPLHPSFNLVKIIRSFLLKVLPADSHEHASGRLGISLTRVSDGENVIISHFNSKDELIQANVCSGFIPVYCGLIPPSLQGVRYVDGGISDNLPLYELKNTITVSPFSGESDICPQDSSTNIHELRVTNTSIQFNLRNLYRLSKALFPPEPLVLREMCKQGYRDGLRFLQRNGLLNRPNPLLALPPARPHGPEDKDQAVESAQAEDYSQLPGEDHILEHLPARLNEALLEACVEPTDLLTTLSNMLPVRLATAMMVPYTLPLESALSFTIRLLEWLPDVPEDIRWMKEQTGSICQYLVMRAKRKLGRHLPSRLPEQVELRRVQSLPSVPLSCAAYREALPGWMRNNLSLGDALAKWEECQRQLLLGLFCTNVAFPPEALRMRAPADPAPAPADPASPQHQLAGPAPLLSTPAPEARPVIGALGL
chain 2: MAAEEEEVDSADTGERSGWLTGWLPTWCPTSISHLKEAEEKMLKCVPCTYKKEPVRISNGNKIWTLKFSHNISNKTPLVLLHGFGGGLGLWALNFGDLCTNRPVYAFDLLGFGRSSRPRFDSDAEEVENQFVESIEEWRCALGLDKMILLGHNLGGFLAAAYSLKYPSRVNHLILVEPWGFPERPDLADQDRPIPVWIRALGAALTPFNPLAGLRIAGPFGLSLVQRLRPDFKRKYSSMFEDDTVTEYIYHCNVQTPSGETAFKNMTIPYGWAKRPMLQRIGKMHPDIPVSVIFGARSCIDGNSGTSIQSLRPHSYVKTIAILGAGHYVYADQPEEFNQKVKEICDTVD
B2: ATGL (PNPLA2, patatin-like phospholipase domain-containing protein 2), human, full length / CIDEC (FSP27), human (parent)
chain 1: B1 chain 1
chain 2: MEYAMKSLSLLYPKSLSRHVSVRTSVVTQQLLSEPSPKAPRARPCRVSTADRSVRKGIMAYSLEDLLLKVRDTLMLADKPFFLVLEEDGTTVETEEYFQALAGDTVFMVLQKGQKWQPPSEQGTRHPLSLSHKPAKKIDVARVTFDLYKLNPQDFIGCLNVKATFYDTYSLSYDLHCCGAKRIMKEAFRWALFSMQATGHVLLGTSCYLQQLLDATEEGQPPKGKASSLIPTCLKILQ

Variants of: B1
Test: LUMIER: Protein A-ATGL variant and firefly luciferase-partner co-expressed in HEK293T, lysates immunoprecipitated on IgG-coated plates, co-precipitated partner measured as luciferase luminescence
Settings: with CGI-58 (ABHD5, 1-acylglycerol-3-phosphate O-acyltransferase ABHD5), transient co-transfection, IgG-coated LUMITRAC plates, 2 h at 4 °C, three PBS washes, Bright-Glo luciferase reagent, triplicates per assay, two …, parent: 0.32, not graded, scale: log2 fold change of co-immunoprecipitated luminescence relative to wild-type ATGL within each experiment

Row | Variant | screen value
1 | chain 1 L261E | -1.2
2 | chain 1 S158A | 0.402
3 | chain 1 S158E | -0.0835
4 | chain 1 G59L | -0.404
5 | chain 1 V328A | -0.513
6 | chain 1 S87E | -0.0233
7 | chain 1 S87A | -0.244
8 | chain 1 G66A | -0.000473
9 | chain 1 G66L | 0.0179
10 | chain 1 V127L | -0.449
11 | chain 1 A453E | 0.381
12 | chain 1 I70A | -0.496
13 | chain 1 T41A | 0.269
14 | chain 1 K275A | -0.731
15 | chain 1 Q140K | -0.444
16 | chain 1 Q140A | 0.428
17 | chain 1 R163K | 0.351

Row | Variant | screen value
18 | chain 1 G189E | -1.39
19 | chain 1 L62K | -0.614
20 | chain 1 P103K | -0.089
21 | chain 1 R329E | -0.412
22 | chain 1 G16K | -0.139
23 | chain 1 E368A | -0.427
24 | chain 1 L102K | -0.532
25 | chain 1 Q396A | -0.502
26 | chain 1 P156K | -0.794
27 | chain 1 F35A | -0.0512
28 | chain 1 R351L | -0.948
29 | chain 1 A104E | 0.291
30 | chain 1 F348E | -0.83
31 | chain 1 Y415A | 0.149
32 | chain 1 H109E | 0.0522
33 | chain 1 S106K | -0.182

Same assay, conditions: with CGI-58 (ABHD5, 1-acylglycerol-3-phosphate O-acyltransferase ABHD5), transient co-transfection, IgG-coated LUMITRAC plates, 2 h at 4 °C, three PBS washes, Bright-Glo luciferase reagent, triplicates per assay, two …, parent: 0.45, not graded, scale: log2 fold change of co-immunoprecipitated luminescence relative to wild-type ATGL within each experiment

Row | Variant | screen value
34 | chain 1 L261E | -0.989
35 | chain 1 S158A | 0.00753
36 | chain 1 S158E | -0.000176
37 | chain 1 G59L | -0.665
38 | chain 1 V328A | -0.464
39 | chain 1 S87E | -0.304
40 | chain 1 S87A | -0.0566
41 | chain 1 G66A | 0.0899
42 | chain 1 G66L | -0.54
43 | chain 1 V127L | -0.203
44 | chain 1 A453E | 0.474
45 | chain 1 I70A | -0.552
46 | chain 1 T41A | 0.283
47 | chain 1 K275A | -0.473
48 | chain 1 Q140K | 0.322
49 | chain 1 Q140A | 0.0685
50 | chain 1 R163K | 0.226

Row | Variant | screen value
51 | chain 1 G189E | -1.13
52 | chain 1 L62K | -0.447
53 | chain 1 N180L | -0.679
54 | chain 1 P103K | 0.0251
55 | chain 1 R329E | -0.601
56 | chain 1 G16K | 0.515
57 | chain 1 E368A | -0.714
58 | chain 1 L102K | -0.83
59 | chain 1 Q396A | -0.818
60 | chain 1 P156K | -0.596
61 | chain 1 F35A | -0.207
62 | chain 1 R351L | -1.04
63 | chain 1 A104E | 0.0407
64 | chain 1 F348E | -1.02
65 | chain 1 Y415A | -0.124
66 | chain 1 H109E | -0.021
67 | chain 1 S106K | -0.557

Same assay, conditions: with CGI-58 (ABHD5, 1-acylglycerol-3-phosphate O-acyltransferase ABHD5), transient co-transfection, IgG-coated LUMITRAC plates, 2 h at 4 °C, three PBS washes, Bright-Glo luciferase reagent, triplicates per assay, two …, parent: 0.32, not graded, value at the no-binding floor (a bound), scale: log2 fold change of co-immunoprecipitated luminescence relative to wild-type ATGL within each experiment

Row | Variant | screen value
68 | chain 1 N180L | -1.8

Variants of: B2
Test: as above
Settings: with CIDEC (FSP27), transient co-transfection, IgG-coated LUMITRAC plates, 2 h at 4 °C, three PBS washes, Bright-Glo luciferase reagent, triplicates per assay, two …, parent: 0.17, not graded, scale: log2 fold change of co-immunoprecipitated luminescence relative to wild-type ATGL within each experiment

Row | Variant | screen value
69 | chain 1 P156K | -0.723
70 | chain 1 N39E | 0.129
71 | chain 1 S106K | -0.0703
72 | chain 1 A453E | 0.56
73 | chain 1 E314A | -0.691
74 | chain 1 N180L | -0.529
75 | chain 1 E125L | -0.231
76 | chain 1 H109E | -0.00157
77 | chain 1 Q396A | 0.0352
78 | chain 1 R95L | -0.169
79 | chain 1 R95K | -0.0915
80 | chain 1 V127L | -0.166
81 | chain 1 A434L | -0.034
82 | chain 1 G59L | 0.339
83 | chain 1 P103K | -0.241
84 | chain 1 S158A | -0.128
85 | chain 1 S158E | -0.309
86 | chain 1 G153A | -0.268
87 | chain 1 G153K | -0.57
88 | chain 1 R329E | 0.201
89 | chain 1 V328A | 0.302
90 | chain 1 F35A | 0.00149
91 | chain 1 F35E | 0.312

Same assay, conditions: with CIDEC (FSP27), transient co-transfection, IgG-coated LUMITRAC plates, 2 h at 4 °C, three PBS washes, Bright-Glo luciferase reagent, triplicates per assay, two …, parent: 0.24, not graded, scale: log2 fold change of co-immunoprecipitated luminescence relative to wild-type ATGL within each experiment

Row | Variant | screen value
92 | chain 1 P156K | -0.374
93 | chain 1 N39E | -0.0276
94 | chain 1 S106K | -0.113
95 | chain 1 A453E | 0.847
96 | chain 1 E314A | -0.29
97 | chain 1 N180L | -0.574
98 | chain 1 E125L | -0.238
99 | chain 1 H109E | -0.00996
100 | chain 1 Q396A | -0.182
101 | chain 1 R95L | 0.507
102 | chain 1 R95K | -0.656
103 | chain 1 V127L | -0.0792
104 | chain 1 A434L | 0.729
105 | chain 1 G59L | -0.00561
106 | chain 1 P103K | -0.421
107 | chain 1 S158A | 0.0569
108 | chain 1 S158E | -0.238
109 | chain 1 G153A | 0.00164
110 | chain 1 G153K | -0.174
111 | chain 1 R329E | -0.13
112 | chain 1 V328A | -0.193
113 | chain 1 F35A | -0.0902
114 | chain 1 F35E | 0.00116
